Source: PMC9418005 (Nature Microbiology, 2022)

Key:
[1] = molecular target: Delta (B.1.617.2) variant spike trimer (SARS-CoV-2 Delta (B.1.617.2), 2 prolines (P986–P987) | residues 682–685 mutated to GSAS); assay: cell-based or functional assay
[2] = molecular target: Alpha (B.1.1.7) variant spike trimer (SARS-CoV-2 Alpha (B.1.1.7), 2 prolines (P986–P987) | residues 682–685 mutated to GSAS); assay: cell-based or functional assay
[3] = molecular target: Beta (B.1.351) variant spike trimer (SARS-CoV-2 Beta (B.1.351), 2 prolines (P986–P987) | residues 682–685 mutated to GSAS); assay: cell-based or functional assay
[4] = molecular target: D614G mutant spike trimer (SARS-CoV-2 2019-nCoV D614G, D614G | 2 prolines (P986–P987) | residues 682–685 mutated to GSAS); assay: cell-based or functional assay
[5] = molecular target: Gamma (P.1) variant spike trimer (SARS-CoV-2 Gamma (P.1), 2 prolines (P986–P987) | residues 682–685 mutated to GSAS); assay: cell-based or functional assay
[6] = molecular target: T1, original 2019-nCoV spike trimer (SARS-CoV-2 original 2019-nCoV …, UniProt P0DTC2, 2 prolines (P986–P987) | residues 682–685 mutated to GSAS); assay: Luminex bead-based binding assay; settings: both partners purified
[7] = molecular target: T1, original 2019-nCoV spike trimer; assay: Luminex spike-ACE2 surrogate neutralization assay; settings: both partners purified

Binder	IC80, live SARS-CoV-2 cytopathic effect neutralization assay, Vero E6 cells [1] [µg/mL]	IC80, live SARS-CoV-2 cytopathic effect neutralization assay, Vero E6 cells [2] [µg/mL]	IC80, live SARS-CoV-2 cytopathic effect neutralization assay, Vero E6 cells [3] [µg/mL]	IC80, live SARS-CoV-2 cytopathic effect neutralization assay, Vero E6 cells [4] [µg/mL]	IC80, live SARS-CoV-2 cytopathic effect neutralization assay, Vero E6 cells [5] [µg/mL]	binding result [6]	binding result [7]
P2G3 LS human IgG1 monoclonal antibody (antibody, V domains shown) VH: EVQLVESGGGLVQPGRSLRLSCAASGFRFDDYALHWVRQAPEKGLEWVSGISWNSNNIGYAESVKGRFTISRDTAKKSLYLQMNDLRAEDTALYYCVKDRHYDSSGYFVNGFDIWGQGTLVTVSA VL: DIQLTQSPSFLSASVGDRVTVTCRASQGISSYVAWYQQKAGKAPTLLIYTASTLQSGVPSRFSGSGSGTEFTLTISSLQPEDFATYYCQQLHSYPVTFGQGTRLDIE	0.024	0.01	0.017	0.028	0.021	binds	
P5C3 LS monoclonal antibody (antibody, V domains shown) VH: QMQLVQSGPEVKKPGTSVKVSCKASGFTFTSSAVQWVRQARGQRLEWIGWIVVGSGNTDYAQQFQERVTITRDMSTSTAYMELSSLGSEDTAVYYCAAPNCSGGSCYDGFDLWGQGTMVTVSS VL: EIVLTQSPGTLSLSPGERATLSCRGSQSVRSSYLGWYQQKPGQAPRLLIYGASSRATGIPDRFSGSGSGTDFTLTISRLEPEDFAVYYCQQYGSSPWTFGQGTKVEIK							binds
